For this experiment, the target named is E. coli RNAP core with βG1249D (α2, His6-tagged βG1249D, β’, ω) (E. coli) (UniProt P0A7Z4). The experiment is described as follows: cross-linking; photo-crosslinking from BpA at σ 581; σD581BpA incubated with or without AsiA 10 min at 37°C, then with core 10 min at 37°C; UV 30 min at room temperature; SDS-PAGE with Coomassie stain; crosslinked band digested with trypsin and read by MALDI-TOF; the species was seen only with AsiA present.

“AsiA/σD581BpA complex (from UniProt P00579 1-613; P32267 1-90)”: the fold less of the σD581BpA-β’ crosslinked product than with wt core came to 4 fold.

These data come from publication PMC5027511.
